# Measured values published in the supplement of paper PMC11316812.
# ± gives the standard deviation of the averaged measurements.
# How the values were obtained:
# [1] = tested on: MCF7; test: percentage of EdU-negative (G0-arrested) nuclei per well, 72 h; higher = more G0 arrest; conditions: reference: sequence is the full UniProt precursor, the tested protein was the secreted form or ectodomain
# [2] = tested on: hTERT-HMEC; test: as above; conditions: reference: sequence is the full UniProt precursor, the tested protein was the secreted form or ectodomain
# [3] = protein concentration 0.03125 µM
# [4] = protein concentration 0.3125 µM
# [5] = protein concentration 0.00775 µM
# [6] = protein concentration 0.0775 µM
# [7] = protein concentration 0.022665 µM
# [8] = protein concentration 0.22665 µM
# [9] = protein concentration 0.00742857 µM
# [10] = protein concentration 0.0225 µM
# [11] = protein concentration 0.0742857 µM
# 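Note: secreted proteins added to cultured cells, EdU pulse at the end, nuclei found by Hoechst imaging, EdU status from nuclear versus surrounding ring intensity ratio, PBS as neutral control.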
sequence,measurement,setting,value
MRRMWATQGLAVALALSVLPGSRALRPGDCEVCISYLGRFYQDLKDRDVTFSPATIENELIKFCREARGKENRLCYYIGATDDAATKIINEVSKPLAHHIPVEKICEKLKKKDSQICELKYDKQIDLSTVDLKKLRVKELKKILDDWGETCKGCAEKSDYIRKINELMPKYAPKAASARTDL,percentage of EdU-negative,[1]; [3],25.9 ± 1.2%
same,percentage of EdU-negative,[1]; [4],24.8 ± 3.6%
same,percentage of EdU-negative,[2]; [3],5.21 ± 0.51%
same,percentage of EdU-negative,[2]; [4],6.6 ± 0.2%
MRRPAAVPLLLLLCFGSQRAKAATACGRPRMLNRMVGGQDTQEGEWPWQVSIQRNGSHFCGGSLIAEQWVLTAAHCFRNTSETSLYQVLLGARQLVQPGPHAMYARVRQVESNPLYQGTASSADVALVELEAPVPFTNYILPVCLPDPSVIFETGMNCWVTGWGSPSEEDLLPEPRILQKLAVPIIDTPKCNLLYSKDTEFGYQPKTIKNDMLCAGFEEGKKDACKGDSGGPLVCLVGQSWLQAGVISWGEGCARQNRPGVYIRVTAHHNWIHRIIPKLQFQPARLGGQK [Q9BQR3],percentage of EdU-negative,[1]; [5],25.18 ± 0.16%
same,percentage of EdU-negative,[1]; [6],26.7 ± 2.6%
same,percentage of EdU-negative,[2]; [5],4.44 ± 0.22%
same,percentage of EdU-negative,[2]; [6],6.65 ± 0.73%
MRRRRAGGRTMVERASKFVLVVAGSVCFMLILYQYAGPGLSLGAPGGRAPPDDLDLFPTPDPHYEKKYYFPVRELERSLRFDMKGDDVIVFLHIQKTGGTTFGRHLVQNVRLEVPCDCRPGQKKCTCYRPNRRETWLFSRFSTGWSCGLHADWTELTNCVPGVLDRRDSAALRTPRKFYYITLLRDPVSRYLSEWRHVQRGATWKTSLHMCDGRTPTPEELPPCYEGTDWSGCTLQEFMDCPYNLANNRQVRMLADLSLVGCYNLSFIPEGKRAQLLLESAKKNLRGMAFFGLTEFQRKTQYLFERTFNLKFIRPFMQYNSTRAGGVEVDEDTIRRIEELNDLDMQLYDYAKDLFQQRYQYKRQLERREQRLRSREERLLHRAKEALPREDADEPGRVPTEDYMSHIIEKW,percentage of EdU-negative,[1]; protein concentration 0.01 µM,25.6 ± 0.82%
same,percentage of EdU-negative,[1]; protein concentration 0.1 µM,28.9 ± 4%
same,percentage of EdU-negative,[2]; protein concentration 0.01 µM,5.25 ± 0.85%
same,percentage of EdU-negative,[2]; protein concentration 0.1 µM,31.7 ± 5.8%
MRSAAVLALLLCAGQVTALPVNSPMNKGDTEVMKCIVEVISDTLSKPSPMPVSQECFETLRGDERILSILRHQNLLKELQDLALQGAKERAHQQKKHSGFEDELSEVLENQSSQAELKEAVEEPSSKDVMEKREDSKEAEKSGEATDGARPQALPEPMQESKAEGNNQAPGEEEEEEEEATNTHPPASLPSQKYPGPQAEGDSEGLSQGLVDREKGLSAEPGWQAKREEEEEEEEEAEAGEEAVPEEEGPTVVLNPHPSLGYKEIRKGESRSEALAVDGAGKPGAEEAQDPEGKGEQEHSQQKEEEEEMAVVPQGLFRGGKSGELEQEEERLSKEWEDSKRWSKMDQLAKELTAEKRLEGQEEEEDNRDSSMKLSFRARAYGFRGPGPQLRRGWRPSSREDSLEAGLPLQVRGYPEEKKEEEGSANRRPEDQELESLSAIEAELEKVAHQLQALRRG,percentage of EdU-negative,[1]; [7],24.2 ± 2.3%
same,percentage of EdU-negative,[1]; [3],26.2 ± 1.6%
same,percentage of EdU-negative,[1]; [8],24.9 ± 1.5%
same,percentage of EdU-negative,[1]; [4],25.6 ± 1.5%
same,percentage of EdU-negative,[2]; [7],4.31 ± 0.57%
same,percentage of EdU-negative,[2]; [3],5.57 ± 0.62%
same,percentage of EdU-negative,[2]; [8],7.26 ± 0.12%
same,percentage of EdU-negative,[2]; [4],5.39 ± 0.89%
MRSLGALLLLLSACLAVSAGPVPTPPDNIQVQENFNISRIYGKWYNLAIGSTCPWLKKIMDRMTVSTLVLGEGATEAEISMTSTRWRKGVCEETSGAYEKTDTDGKFLYHKSKWNITMESYVVHTNYDEYAIFLTKKFSRHHGPTITAKLYGRAPQLRETLLQDFRVVAQGVGIPEDSIFTMADRGECVPGEQEPEPILIPRVRRAVLPQEEEGSGGGQLVTEVTKKEDSCQLGYSAGPCMGMTSRYFYNGTSMACETFQYGGCMGNGNNFVTEKECLQTCRTVAACNLPIVRGPCRAFIQLWAFDAVKGKCVLFPYGGCQGNGNKFYSEKECREYCGVPGDGDEELLRFSN,percentage of EdU-negative,[1]; [9],27.22 ± 0.12%
same,percentage of EdU-negative,[1]; [10],23.9 ± 0.98%
same,percentage of EdU-negative,[1]; [11],26 ± 2.5%
same,percentage of EdU-negative,[1]; protein concentration 0.225 µM,25.2 ± 1.6%
same,percentage of EdU-negative,[2]; [9],4.92 ± 0.19%
same,percentage of EdU-negative,[2]; [10],5.59 ± 1.2%
same,percentage of EdU-negative,[2]; [11],7.02 ± 1.1%
same,percentage of EdU-negative,[2]; protein concentration 0.225 µM,5.52 ± 0.57%
MRSLLLLSAFCLLEAALAAEVKKPAAAAAPGTAEKLSPKAATLAERSAGLAFSLYQAMAKDQAVENILVSPVVVASSLGLVSLGGKATTASQAKAVLSAEQLRDEEVHAGLGELLRSLSNSTARNVTWKLGSRLYGPSSVSFADDFVRSSKQHYNCEHSKINFRDKRSALQSINEWAAQTTDGKLPEVTKDVERTDGALLVNAMFFKPHWDEKFHHKMVDNRGFMVTRSYTVGVMMMHRTGLYNYYDDEKEKLQIVEMPLAHKLSSLIILMPHHVEPLERLEKLLTKEQLKIWMGKMQKKAVAISLPKGVVEVTHDLQKHLAGLGLTEAIDKNKADLSRMSGKKDLYLASVFHATAFELDTDGNPFDQDIYGREELRSPKLFYADHPFIFLVRDTQSGSLLFIGRLVRPKGDKMRDEL,percentage of EdU-negative,[1]; [3],26.6 ± 2.3%
same,percentage of EdU-negative,[1]; [4],27.2 ± 1.1%
same,percentage of EdU-negative,[2]; [3],4.8 ± 0.84%
same,percentage of EdU-negative,[2]; [4],7.55 ± 1%
